In patent US10323078B2, “Isolated peptides and fragments thereof from fibrinogen for use as drugs, particularly in skin inflammatory diseases” (Universite Paris Descartes, priority 2015, dated 2019):

Key:
[1] = tested on: P. acnes RON strain; assay: Adhesion assay, biotinylated P. acnes binding to keratinocytes (NHDK); assay type: cell-based, Propionibacterium acnes; settings: bacteria pretreated 0.87 to 7 μM, 1 h at 37° C.
Description: The bacterial suspension was adjusted at 600 nm to the desired concentration, pretreated with peptides Fg1 and Fg2 at the final concentration ranging from 0.87 to 7 μM for 1 h at 37° C. and deposited on the previously saturated cells with a solution of PBS SVF 2% for 2 h. After incubation for 1 h at 37° C., unbound bacteria are removed by 3 washes with PBS and fixed bacteria are detected by a streptavidin-peroxidase solution of 0.5 μg/ml for 30 min.
Whole P. acnes bacteria are labelled by biotinylation, pre-treated or not with the peptides and contacted with the various cell lines. After removal of the unfixed bacteria, the adhesion activity was measured spectrophotometrically by using the streptavidin-peroxidase conjugate and a chromogenic substrate.
The ability of P. acnes strains 6919, RON and PIE was tested at 3 concentrations to adhere to various cells lines. It has been shown that the strains of P. acnes tested bound to the three kind of cell lines tested (keratinocytes, monocytes and fibroblast) with a maximum adhesion strength found for keratinocytes (FIG. 11). Knowing that P. acnes is able to recognize fibrinogen, it was used human and bovine whole fibrinogen to compete the interaction between the bacteria and the target cell. […] Then, the ability Fg1 to inhibit the adhesion of bacteria and RON PIE was evaluated on the 3 main types cell. […]

[2] = tested on: HDF cells; assay: O2°− production by P. acnes-stimulated HDF; assay type: cell-based, human; settings: 0.87 to 7 μM
Description: (§1) For experiences of stimulation with P. acnes, cells were incubated with the P. acnes suspension adjusted at the appropriate concentration, pre-treated for 1 h at 37° C. or not with fibrinogen recombinant peptides Fg1 and Fg2 at the concentrations 0.87, 1.75, 3.5 or 7 μM for the desired period of time at 37° C. in 5% CO2.
(§2) All cells lines (5·10^4 to 10^5 cells/well) were seeded in 96-well plates (Corning Costar, Brumath, France) and treated as previously described. After stimulation, cells were washed three times in PBS and incubated with 100 μl per wells of 5 μM DHE (for determination of O2^●−) or 5 μM H2-DCFDA (for determination of H2O2) for 30 min as described previously and fluorescence intensity was recorded every hour over a period of 5 h. Fluorescence excitation/emission maxima were for DHE: 480/610 nm and for H2-DCFDA: 507/525 nm. At the end of the experiment, the number of adherent cells was evaluated by the crystal violet assay as described below. O2^●−, and H2O2 were assayed by spectrofluorimetry on a Fusion spectrofluorimeter (PackardBell, Paris, France). Levels of ROS were calculated in each sample as follows: reactive oxygen species rate (arbitrary units/min/10^6 cells)=(fluorescence intensity [arbitrary units] at T5h—fluorescence intensity [arbitrary units] at To/300 minutes/number of adherent cells as measured by the crystal violet assay, and were expressed as arbitrary unit (A.U.).
(§3) To assess the efficacy of Fg1 recombinant peptide, the production of O2^∘− and H2O2 by HaCaT cells NHDK, THP-1, MRC5 and HDF stimulated by pretreated P. acnes strains 6919, RON and PIE was measured. The amount of ROS produced was compared to that produced by the stimulated cells with untreated bacteria. Production baseline was obtained by measuring ROS on unstimulated cells. The production of IL-1ß, IL-8, IL-12 and TNF-α was also measured in all conditions cited above. The measurement of the production of ROS is performed by spectrofluorimetry in the presence of specific fluorochromes directly on the monolayer cell. Measurement of cytokine production was performed in parallel on the cell culture supernatant.
(§4) Two sets of experiments were implemented: 1) The cells were stimulated (18 h at 37° C.) by P. acnes strains previously pretreated with Fg1 and Fg2 peptides at the final concentrations ranging from 0.87 to 7 μM for 1 h at 37° C.; and 2) The cells were pretreated first with Fg1 and Fg2 peptides at the final concentrations ranging from 0.87 to 7 μM for 24 h at 37° C. and stimulated (18 h at 37° C.) by P. acnes strains.

[3] = tested on: HaCaT cells; assay: H2O2 production by P. acnes-stimulated HaCaT (spectrofluorimetry, H2-DCFDA); assay type: cell-based, human; settings: bacteria first pretreated, 0.87 to 7 μM
Description: as §1, §2, §3, §4
To assess the efficacy of the small Fg1-related peptide, the production of H2O2 by several cell lines (HaCaT, NHDK, THP-1, MRC5 and HDF) stimulated by three P. acnes strains 6919, RON and PIE was measured, in presence or not with the small peptides. The amount of H2O2 produced is compared to that produced by the stimulated cells with untreated bacteria. Production baseline is obtained by measuring H2O2 on unstimulated cells. The measurement of the production of H2O2 is performed by spectrofluorimetry in the presence of specific fluorochromes directly on the monolayer cell.
Two sets of experiments have been implemented: • I) The cells are stimulated (18 h at 37° C.) by P. acnes strains previously pretreated with Fg1.1, Fg1.2, Fg1.3, Fg1.4, and Fg1.5 small peptides at the final concentrations ranging from 2.5 to 20 μM for 1 h at 37° C.; • II) The cells are pretreated first with the five small peptides at the final concentrations ranging from 2.5 to 20 μM for 24 h at 37° C. and stimulated (18 h at 37° C.) by P. acnes strains.

[4] = tested on: MRC5 cells; assay: H2O2 production by P. acnes-stimulated MRC5; assay type: cell-based, human; settings: bacteria first pretreated, 0.87 to 7 μM
[5] = tested on: NHDK cells; assay: IL-1β production by P. acnes-stimulated NHDK (ELISA); assay type: cell-based, human; settings: P. acnes 6919, set I, bacteria first pretreated, 0.87 to 7 μM
Description: as §1
(§5) Human IL-1ß, IL-8, IL-12, hBD-2, and TNF-α protein concentration was measured in the supernatants of stimulated cells using various ELISA Set kits (Ready-Set-Go kit from eBioscience for acne experiments, and for psoriasis experiments the Duo set IL-8 kit from R&D Systems and the BD-2 Human Development (hBD-2) from Peprotech) according to the manufacturer's instructions. We used serial dilutions of recombinant human IL-1ß, IL-8, IL-12 and TNF-α for standard curve. The optical density was determined at 450 nm at a wavelength correction of 540 nm.
as §3, with “The measurement of the production of ROS is performed by spectrofluorimetry in the presence of specific fluorochromes directly on the monolayer cell. Measurement of cytokine production was performed in parallel on the cell culture supernatant.” left out

[6] = tested on: MRC5 cells; assay: TNF-α production by P. acnes-stimulated MRC5 (ELISA); assay type: cell-based, human; settings: 0.87 to 7 μM
Description: as §1, §5, §3, §4

[7] = P. acnes 6919, set I, bacteria first pretreated
[8] = P. acnes 6919, set II, cells first pretreated
[9] = P. acnes PIE, set I, bacteria first pretreated
[10] = P. acnes PIE, set II, cells first pretreated
[11] = P. acnes RON, set I, bacteria first pretreated
[12] = P. acnes RON, set II, cells first pretreated

B1: MKRMVSWSFHKLKTMKHLLLLLLCVFLVKSQGVNDNEEGFFSARGHRPLDKKREEAPSLRPAPPPISGGGYRARPAKAAATQKKVERKAPDAGGCLHADPDLGVLC (protein)
chain: MKRMVSWSFHKLKTMKHLLLLLLCVFLVKSQGVNDNEEGFFSARGHRPLDKKREEAPSLRPAPPPISGGGRARPAKAAATQKKVERKAPDAGGCLHADPDLGVLCMKRMVSWSFHKLKTMKHLLLLLLCVFLVKSQGVNDNEEGFFSARGHRPLDKKREEAPSLRPAPPPISGGGYRARPAKAAATQKKVERKAPDAGGCLHADPDLGVLC
modifications: GST fusion; fragment Fg1
notes: fragment of Bß chain of human fibrinogen having 106 amino acids; recombinant GST-fused peptide expressed in E. coli
How did the “Inhibition of adhesion of P. acnes RON strain” value [1] turn out when B1 was run?
Its value is “inhibits the adhesion of RON strain in a dose-dependent manner”.

What about the “Inhibition of Superoxide anion (O2°−) production” value (shortened to “Inhibition of Superoxide anion”) [2, 7] of the same molecule?
Its value is “pos”.

What about the “Inhibition of Superoxide anion” value [2, 8] of the same molecule?
The value was “pos”.

What about the “Inhibition of Superoxide anion” value [2, 9] of the same molecule?
The value was “pos”.

What about the “Inhibition of Superoxide anion” value [2, 10] of the same molecule?
Its value is “pos”.

And the “Inhibition of Superoxide anion” value [2, 11]?
The value was “pos”.

What about the “Inhibition of Superoxide anion” value [2, 12] of the same molecule?
The value was “pos”.

What about the “Inhibition of Hydrogen peroxide (H2O2) production” value (shortened to “Inhibition of Hydrogen peroxide”) ([3]; P. acnes 6919, set I) of the same molecule?
Its value is “pos”.

And the “Inhibition of Hydrogen peroxide” value ([3]; P. acnes PIE, set I)?
Its value is “pos”.

And the “Inhibition of Hydrogen peroxide” value ([3]; P. acnes RON, set I)?
Its value is “pos”.

And the “Inhibition of Hydrogen peroxide” value ([4]; P. acnes 6919, set I)?
The value was “pos”.

And the “Inhibition of Hydrogen peroxide” value ([4]; P. acnes PIE, set I)?
Its value is “pos”.

And the “Inhibition of Hydrogen peroxide” value ([4]; P. acnes RON, set I)?
Its value is “pos”.

What about the “Inhibition of Interleukine 1 beta (IL-1β) production” value [5] of the same molecule?
The value was “pos”.

And the “Inhibition of Interleukine TNF alpha (TNF-α) production” value (“Inhibition of Interleukine TNF alpha” below) [6, 7]?
The value was “pos”.

What about the “Inhibition of Interleukine TNF alpha” value [6, 8] of the same molecule?
The value was “pos”.

And the “Inhibition of Interleukine TNF alpha” value [6, 9]?
The value was “pos”.

What about the “Inhibition of Interleukine TNF alpha” value [6, 10] of the same molecule?
Its value is “pos”.

And the “Inhibition of Interleukine TNF alpha” value [6, 11]?
The value was “pos”.

And the “Inhibition of Interleukine TNF alpha” value [6, 12]?
The value was “pos”.
